Data reported in doi:10.1101/2021.04.30.442189.

Molecular target: T1, TRF2 (human), Q15554
T1 chain: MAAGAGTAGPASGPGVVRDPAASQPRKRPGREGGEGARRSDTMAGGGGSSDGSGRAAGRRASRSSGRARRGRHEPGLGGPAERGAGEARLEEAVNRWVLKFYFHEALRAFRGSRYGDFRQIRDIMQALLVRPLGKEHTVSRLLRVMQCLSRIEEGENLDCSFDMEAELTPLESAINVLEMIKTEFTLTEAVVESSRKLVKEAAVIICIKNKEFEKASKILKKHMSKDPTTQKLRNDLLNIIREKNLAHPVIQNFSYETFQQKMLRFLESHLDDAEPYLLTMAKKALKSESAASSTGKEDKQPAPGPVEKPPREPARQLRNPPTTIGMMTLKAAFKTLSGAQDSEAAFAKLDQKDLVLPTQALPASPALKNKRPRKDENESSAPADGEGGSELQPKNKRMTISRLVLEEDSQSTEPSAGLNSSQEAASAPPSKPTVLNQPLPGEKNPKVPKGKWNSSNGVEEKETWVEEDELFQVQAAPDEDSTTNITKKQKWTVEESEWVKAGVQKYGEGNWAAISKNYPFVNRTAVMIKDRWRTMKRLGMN
Settings: remark: other sources report otherwise

stoichiometry N: 2
B1: TRF2, Q15554 1-542 (natural protein)
chain: T1 chain
